Assay results reported in patent US6906033 (dated 2005).
Like-named read-outs stand apart in the source and are kept apart here.

T1: human factor XIIa (human, UniProt P00748 20-615, biotinylated with Biotin Ester (Zymed); sites not stated)
T1 chain: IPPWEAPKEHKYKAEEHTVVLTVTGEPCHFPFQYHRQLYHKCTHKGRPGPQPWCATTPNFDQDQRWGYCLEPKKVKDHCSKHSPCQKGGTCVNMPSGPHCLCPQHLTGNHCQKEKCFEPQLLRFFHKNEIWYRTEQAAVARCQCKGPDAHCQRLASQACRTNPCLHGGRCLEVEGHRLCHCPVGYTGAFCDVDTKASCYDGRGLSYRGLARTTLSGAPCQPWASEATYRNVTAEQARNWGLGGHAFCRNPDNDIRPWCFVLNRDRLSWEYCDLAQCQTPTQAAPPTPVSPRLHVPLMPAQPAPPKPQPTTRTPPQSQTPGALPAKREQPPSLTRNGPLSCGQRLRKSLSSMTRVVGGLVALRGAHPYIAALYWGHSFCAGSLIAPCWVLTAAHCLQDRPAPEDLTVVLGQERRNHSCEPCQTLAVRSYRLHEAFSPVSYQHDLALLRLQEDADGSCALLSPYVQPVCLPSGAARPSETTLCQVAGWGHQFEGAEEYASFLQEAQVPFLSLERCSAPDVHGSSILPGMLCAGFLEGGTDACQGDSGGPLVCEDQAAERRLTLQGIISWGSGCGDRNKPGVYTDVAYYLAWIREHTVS

T2: human factor Xa (human, UniProt P00742 41-179; P00742 235-488)
T2 chain 1: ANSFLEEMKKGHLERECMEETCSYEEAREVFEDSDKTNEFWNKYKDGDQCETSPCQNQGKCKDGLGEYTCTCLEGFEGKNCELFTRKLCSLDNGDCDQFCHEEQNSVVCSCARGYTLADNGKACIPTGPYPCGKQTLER
T2 chain 2: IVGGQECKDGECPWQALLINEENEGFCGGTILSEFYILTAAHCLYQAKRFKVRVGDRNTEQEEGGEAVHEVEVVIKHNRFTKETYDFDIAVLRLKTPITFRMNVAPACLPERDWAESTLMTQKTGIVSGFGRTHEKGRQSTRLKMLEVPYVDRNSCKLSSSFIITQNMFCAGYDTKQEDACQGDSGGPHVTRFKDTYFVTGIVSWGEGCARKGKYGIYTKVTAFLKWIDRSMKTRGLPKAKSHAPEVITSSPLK


What was measured:
Assay in all cases: enzyme inhibition
human plasma kallikrein [1] = molecular target: T3, human plasma kallikrein (human, UniProt P03952 20-638)
T3 sequence (P03952 20-638): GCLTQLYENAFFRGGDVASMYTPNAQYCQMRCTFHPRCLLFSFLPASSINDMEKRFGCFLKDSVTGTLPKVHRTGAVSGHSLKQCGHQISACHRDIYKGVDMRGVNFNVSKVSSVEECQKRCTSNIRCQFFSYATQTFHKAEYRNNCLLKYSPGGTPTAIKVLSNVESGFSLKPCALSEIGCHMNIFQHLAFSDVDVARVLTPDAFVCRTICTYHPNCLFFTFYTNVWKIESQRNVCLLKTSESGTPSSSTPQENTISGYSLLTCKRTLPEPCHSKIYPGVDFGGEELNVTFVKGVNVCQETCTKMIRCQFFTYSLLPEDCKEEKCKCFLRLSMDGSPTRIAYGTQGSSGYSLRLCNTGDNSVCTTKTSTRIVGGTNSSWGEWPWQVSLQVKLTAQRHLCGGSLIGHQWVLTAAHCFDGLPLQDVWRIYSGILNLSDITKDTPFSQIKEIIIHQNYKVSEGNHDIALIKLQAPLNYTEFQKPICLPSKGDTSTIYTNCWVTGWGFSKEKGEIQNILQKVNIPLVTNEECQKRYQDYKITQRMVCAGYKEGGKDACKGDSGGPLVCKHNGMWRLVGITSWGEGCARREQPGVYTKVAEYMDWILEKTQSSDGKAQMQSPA

human factor XIIa [2] = molecular target: T1, human factor XIIa
human factor Xa [3] = molecular target: T2, human factor Xa
Plasmin [4] = molecular target: Plasmin
human plasma kallikrein [5] = molecular target: T3, human plasma kallikrein; remark: listed apart in the source
human factor XIIa [6] = molecular target: T1, human factor XIIa
human factor Xa [7] = molecular target: T2, human factor Xa
Plasmin [8] = molecular target: Plasmin; remark: listed apart in the source
human plasma kallikrein [9] = molecular target: T3, human plasma kallikrein; remark: listed apart in the source
Plasmin [10] = molecular target: Plasmin; remark: listed apart in the source

Binder | Ki (human plasma kallikrein [1]) [nM] | Ki (human factor XIIa [2]) [nM] | Ki (human factor Xa [3]) [nM] | Ki (human plasma kallikrein [5]) [nM] | Ki (human factor Xa [7]) [nM] | other results
TW6167 (protein) EVVREVCSEQAEPGPCRAMISRWYFDVTEGKCAPFFYGGCGGNRNNFDTEEYCMAVCGSAI | 61 | 3640 | 288 |  |  | 
TW6185 (peptide) EVVREVCSEQAETGPCRAMHWRWYFDVTEGKCAPFFYGGCGGNRNNFDTEEYCMAVCGSAI |  |  |  |  |  | Ki (Plasmin [4]): 18.6 nM
TW6186 (protein) EVVREVCSEQAETGPCRAMHSRWYFDVTEGKCAPFFYGGCYGNRNNFDTEEYCMAVCGSAI |  |  |  | 0.48 | 11 | Ki (human factor XIIa [6]): 186 nM
TW6187 (protein) EVVREVCSEQAETGPCRAMIFRWYFDVTEGKCAPFFYGGCYGNRNNFDTEEYCMAVCGSAI |  |  |  | 3.8 | 15 | Ki (human factor XIIa [6]): 92 nM
TW6188 (protein) EVVREVCSEQAETGPCRAMIYRWYFDVTEGKCAPFFYGGCYGNRNNFDTEEYCMAVCGSAI |  |  |  | 4 | 24 | Ki (human factor XIIa [6]): 419 nM
DD185 (peptide) EVVREVCSEQAETGPCRAAIFRWYFDVTEGKCAPFFYGGCGGNRNNFDTEEYCMAVCGSAI |  |  |  |  |  | Ki (Plasmin [8]): 8.71 nM
DD108 (protein) EVVREVCSEQAETGPCRAAISRWYFDVTEGKCAPFFYGGCGGNRNNFDTEEYCMAVCGSAI | 1.7 | 1600 | 123 |  |  | 
TW6189 (protein) EVVREVCSEQAETGPCRAMIWRWYFDVTEGKCAPFFYGGCYGNRNNFDTEEYCMAVCGSAI |  |  |  | 4 | 34 | 
DD109 (protein) EVVREVCSEQAETGPCRAIISRWYFDVTEGKCAPFFYGGCGGNRNNFDTEEYCMAVCGSAI | 9.5 | 1680 | 421 |  |  | 
DD110 (protein) EVVREVCSEQAETGPCRALISRWYFDVTEGKCAPFFYGGCGGNRNNFDTEEYCMAVCGSAI | 2.1 | 624 | 55 |  |  | 
wild-type KPI (-4→57) (peptide) LDKREVVREVCSEQAETGPCRAMISRWYFDVTEGKCAPFFYGGCGGNRNNFDTEEYCMAVCGSAI | 45 | 3720 | 161 |  |  | Ki (human plasma kallikrein [9]): 45 nM
KPI (-4-57) (peptide) LDKREVVREVCSEQAETGPCRAMISRWYFDVTEGKCAPFFYGGCGGNRNNFDTEEYCMAVCGSAI |  |  |  |  |  | Ki (Plasmin [10]): 34 nM
